In PMC5063806, “Data for peptide-binding assay with oriented immobilization of GRP78 in Biacore” (Data in Brief, 2016):

Target: T1, human GRP78, N-His-tagged (human, UniProt P11021 19-654)
T1 construct: GRP78, human; 6-His tag at the N-terminus; also called N-His-tagged GRP78; not shown: His6, N-terminal, kept
Test: SPR; modified protocol, Biacore X: N-His-tagged GRP78 covalently immobilised (EDC/NHS, Ni2+ orientation, about 5000~6000 RU) on chip NTA; running buffer HBS-P pH 7.4 with 1 mM glycine; L-peptide 6.25-100 uM; both peptides at 50 uM in Fig. 3; fit with BIAevaluation 4.1, default settings
Settings: both partners purified

T1 sequence (P11021 19-654): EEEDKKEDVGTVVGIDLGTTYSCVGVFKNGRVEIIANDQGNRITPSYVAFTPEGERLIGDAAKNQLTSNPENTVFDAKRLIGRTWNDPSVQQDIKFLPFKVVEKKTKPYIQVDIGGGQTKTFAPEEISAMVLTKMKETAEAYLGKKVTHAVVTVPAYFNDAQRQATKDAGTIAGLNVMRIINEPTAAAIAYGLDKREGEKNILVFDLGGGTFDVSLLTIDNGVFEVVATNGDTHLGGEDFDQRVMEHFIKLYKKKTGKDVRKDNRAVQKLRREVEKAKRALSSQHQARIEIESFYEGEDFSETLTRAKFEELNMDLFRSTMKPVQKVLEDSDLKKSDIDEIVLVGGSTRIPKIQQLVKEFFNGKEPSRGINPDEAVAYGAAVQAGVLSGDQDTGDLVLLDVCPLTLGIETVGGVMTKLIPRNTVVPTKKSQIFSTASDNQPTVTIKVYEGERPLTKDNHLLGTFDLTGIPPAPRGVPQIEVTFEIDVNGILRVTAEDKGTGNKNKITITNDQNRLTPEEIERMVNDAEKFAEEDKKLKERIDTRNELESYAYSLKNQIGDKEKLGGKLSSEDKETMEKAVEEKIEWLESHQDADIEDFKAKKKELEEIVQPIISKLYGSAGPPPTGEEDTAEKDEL

- Kd: ~10 µM
B1: L-peptide (RLLDTNRPLLPY) (peptide)
peptide: RLLDTNRPLLPY
notes: Probably synthetic
